Laboratory results taken from patent US7026443.
Like-named read-outs stand apart in the source and are kept apart here.

How the values were obtained:
[1] = target: HLA-A*1101 (human)
[2] = target: HLA-A*0301 (human)

CTELQTTIH (modifications not checked) [… (HPV16 E6, position 23, 9 amino acids)]
binding affinity ratio (IC50 of standard peptide / IC50 of test peptide) (ratio to standard peptide) [1]: 0.0001

NSNAAAFLK (modifications not checked) [HPV33 E1 379 peptide … (SEQ ID NO: 36047)]
relative binding ratio (IC50 of standard peptide / IC50 of test peptide) [2]: 0.0057

LVRNFKSDK (modifications not checked) [HPV45 E1 215-223 peptide … (SEQ ID NO: 37448)]
relative binding ratio (IC50 of the standard peptide / IC50 of the test peptide) [2]: 0.0005

ATMCRHYKR (modifications not checked) [HPV16 E1 406 …]
relative binding ratio (IC50 of standard peptide / IC50 of test peptide) [1]: 1.5

HDIILECVY (modifications not checked) [… (HPV16 E6, position 31, 9 amino acids)]
binding affinity ratio (IC50 of standard peptide / IC50 of test peptide) (ratio to standard peptide) [1]: 0.0001

QMSMSQWIK (modifications not checked) [… (HPV16 E1, position 419, 9 amino acids)]
binding affinity ratio (IC50 of the standard peptide / IC50 of the test peptide) [1]: 0.026

IAQLKDLLK (modifications not checked) [HPV18 E1 198 …]
binding affinity ratio (IC50 of standard peptide / IC50 of test peptide) [2]: 0.0003

ALLRYKCGK (modifications not checked) [HPV18 E1 peptide … (position 284, 9 amino acids)]
binding affinity ratio (IC50 of standard peptide / IC50 of test peptide) [2]: 0.09

LLIRCINCQK (modifications not checked) [… (HPV16 E6, position 106)]
relative binding ratio (IC50 of standard peptide / IC50 of test peptide) (ratio to standard peptide) [2]: 0.021

NSNAAAFLK (modifications not checked) [HPV45 E1 peptide … (position 379, 9 amino acids)]
relative binding ratio (IC50 of standard peptide / IC50 of test peptide) [2]: 0.0057

DIILECVYCK (modifications not checked) [… (HPV16 E6, position 32, 10 amino acids)]
binding affinity ratio (IC50 of standard peptide / IC50 of test peptide) (ratio to standard peptide) [1]: 0.021

FMSFLTALK (modifications not checked) [HPV16 E1 453 …]
relative binding ratio (IC50 of standard peptide / IC50 of test peptide) [1]: 0.21

TAAALYWYK (modifications not checked) [… (HPV16 E1, position 315, 9 amino acids)]
binding affinity ratio (IC50 of the standard peptide / IC50 of the test peptide) [1]: 20

KFYSKISEY (modifications not checked) [… (HPV16 E6, position 75, 9 amino acids)]
binding affinity ratio (IC50 of standard peptide / IC50 of test peptide) (ratio to standard peptide) ([1]; remark: other sources report otherwise): 0.0002

NSNAAAFLK (modifications not checked) [… (HPV18 E1, position 393, 9 amino acids)]
binding affinity ratio (IC50 of standard peptide / IC50 of test peptide) [2]: 0.0057

RFHNIAGHYR (modifications not checked) [HPV18 E6 peptide … (position 126, 10 amino acids)]
relative binding ratio (IC50 of standard peptide / IC50 of test peptide) [2]: 0.0023

CATMCRHYK (modifications not checked) [HPV16 E1 405 …]
relative binding ratio (IC50 of standard peptide / IC50 of test peptide) [1]: 0.0098

NMSQWIRFR (modifications not checked) [… (HPV18 E1, position 428, 9 amino acids)]
binding affinity ratio (IC50 of standard peptide / IC50 of test peptide) [2]: 0.054

LVRNFKSDK (modifications not checked) [HPV45 E1 215 peptide … (SEQ ID NO: 43696)]
relative binding ratio (IC50 of standard peptide / IC50 of test peptide) [1]: 0.0002

LVRNFKSDK (modifications not checked) [… (HPV18 E1, position 229, 9 amino acids)]
binding affinity ratio (IC50 of standard peptide / IC50 of test peptide) [2]: 0.0005

GLSFTDLVR (modifications not checked) [HPV45 E1 peptide … (position 209, 9 amino acids)]
relative binding ratio (IC50 of standard peptide / IC50 of test peptide) [2]: 0.0009

VFEFAFKDLF (modifications not checked) [HPV18 E6 peptide … (position 44, 10 amino acids)]
relative binding ratio (IC50 of standard peptide / IC50 of test peptide) [2]: 0.0001

KFYSKISEYR (modifications not checked) [… (HPV16 E6, position 75)]
relative binding ratio (IC50 of standard peptide / IC50 of test peptide) (ratio to standard peptide) [2]: 0.0067

KISEYRHYCY (modifications not checked) [… (HPV16 E6, position 79)]
relative binding ratio (IC50 of standard peptide / IC50 of test peptide) (ratio to standard peptide) [2]: 0.0043

FLKSNSQAK (modifications not checked) [HPV33 E1 385 peptide … (SEQ ID NO: 35888)]
relative binding ratio (IC50 of standard peptide / IC50 of test peptide) [2]: 0.0013

NSNAAAFLK (modifications not checked) [HPV45 E1 379 peptide … (SEQ ID NO: 43719)]
binding affinity ratio relative to standard peptide (A*1101) ([1]; scale: ratio): 0.37

TTLEQQYNK (modifications not checked) [… (HPV16 E6, position 93)]
relative binding ratio (IC50 of standard peptide / IC50 of test peptide) (ratio to standard peptide) [2]: 0.01

QMNMSQWIR (modifications not checked) [HPV18 E1 426-434 peptide …]
binding affinity ratio relative to standard peptide (IC50 standard / IC50 test) [2]: 0.0011

IILECVYCK (modifications not checked) [… (HPV16 E6, position 33)]
relative binding ratio (IC50 of standard peptide / IC50 of test peptide) (ratio to standard peptide) [2]: 0.0016

NSNASAFLK (modifications not checked) [HPV16 E1 386 …]
binding affinity ratio (IC50 of standard peptide / IC50 of test peptide) (ratio to standard peptide) [1]: 0.011

GLSFTDLVR (modifications not checked) [HPV45 E1 209 … (SEQ ID NO: 43622)]
relative binding ratio (IC50 of standard peptide / IC50 of test peptide) [1]: 0.0025

SMSQWIKYR (modifications not checked) [HPV16 E1 421 …]
binding affinity ratio (IC50 of standard peptide / IC50 of test peptide) [2]: 0.69
